In a protein production outcome set (Wang et al. 2014):

Experiment: label from the status in PepcDB records

Row | Sequence | protein production
1 | MTTETIQSNANLAPLPPHVPEHLVFDFDMYNPSNLSAGVQEAWAVLQESNVPDLVWTRCNGGHWIATRGQLIREAYEDYRHFSSECPFIPREAGEAYDFIPTSMDPPEQRQFRALANQVVGMPVVDKLENRIQELACSLIESLRPQGQCNFTEDYAEPFPIRIFMLLAGLPEEDIPHLKYLTDQMTRPDGSMTFAEAKEALYDYLIPIIEQRRQKPGTDAISIVANGQVNGRPITSDEAKRMCGLLLVGGLDTVVNFLSFSMEFLAKSPEHRQELIERPERIPAACEELLRRFSLVADGRILTSDYEFHGVQLKKGDQILLPQMLSGLDERENACPMHVDFSRQKVSHTTFGHGSHLCLGQHLARREIIVTLKEWLTRIPDFSIAPGAQIQHKSGIVSGVQALPLVWDPATTKAV | not failed
2 | AVNEENIMIPKGVEVYEITGPYFFGIATKFEETMAQLGDRPNVRIIRMRKVPFIDSTGIHNLTTLCEMSQKEKITVILSGVNEKVYKVLEKSGFYELLGKENICPNFKIALDRAEEV | failed
3 | RAAAALAAGALALSLTACGGDEDNGGGDGGDEGGGAKQPASSVTLPKLDGESLEVAAVWTGTEQENFKKVLAEFEKRTGAKVTFVPAQDPIINFLGSKIAGGAPPDVAMLPQPGAIKQAVDKGWAKPLGAEATKELGENYSQGWQDIGKVGGKQYGVYYKAANKSLIWYNAQVFENAGAAEPKTWDELLNAAQMVYDSGVTPFSVGGADGWTLTDWFENVYLSQAGPEKYDQLAKHEIKWTDPSVKDALTTLAEIWGKKDFVAGGASGALQTEFPASVTQTFTGGDQPKAGMVYEGDFVQVNIGETKAKVGTDAKVFPFPAVGDTAPVVSGGDAAVVFKDSKAAQALATWLASPDAAGIQAKLGGFLSPNKSIDSSVYPNEVQKKIAEALVAAGDDFRFDMSDQAPQAFGGTPGKGEWKTLQDFLKNPKDVAGAQAKLEADAAAAYG | failed
4 | YNFSFLSPQGLSFASQGPSAPFWSVFTPRVIGTAVARYNFAARDMRELSLREGDVVRIYSRIGGDQGWWKGETNGRIGWFPSTYVEEEGIQ | failed
5 | MTNLVDKAAHSFATQNVVFQTLATASGKLVGVVTLNVEKALNALDLDMVRAMTVQLNLWKKDPLIACVVLDGSGEKAFCAGGDVRALYHASVAAKGQVTEVAKVFFEEEYRLDYLLHTYGKPVLVWGDGIVMGGGLGLMAGASHKVVTETSRIAMPEVTIGLYPDVGGSYFLNRMPGKMGLFLGLTAYHMNAADACYVGLADHYLNRDDKELMFDAMATLDWSDSPALNHQRLDTMINELSNQVDIPKGDSVLAESQEMIDRLMAGSLTDIVTRMSTLSTDEAWLSKACATMLAGSPISWHLAYIQTQLGTKLSLAQCFKWELTVSVNVCAKGDFCEGVRALLIDKDKQPKWQFADVQSVPNSVIEDILTSPWGEEHPLSQLS | not failed
6 | MSLQWECWPSLPCWRCFAASGRITLSIKRFTQNSRRHDMKITKINAIPLSYRLPEGKTVTMGVGSTIKRDAIIIRVETSEGITGYGEAHPGRSPGAITSLIHNTIAPMLIGMKATDCVGAWQRVHRMQLSSHGLGAGAALAISGIDMALWDIRGKAANMPLYELLGGSKRRIPAYAGGIALGYQPKESLAEEAQEYIARGYKALKLRIGDAARVDIERVRHVRKVLGDEVDILTDANTAYTMADARRVLPVLAEIQAGWLEEPFACNDFASYREVAKITPLVPIAAGENHYTRFEFGQMLDAGAVQVWQPDLSKCGGITEGIRIAAMASAYRIPINAHSSATGLNHAATIHFLAATENAGYFEACVSKFNPFRDMFGTSFEIGADGCVEPPDAPGLGIEVDESIFEKYPAVDGPGYVVKFEGHHHHHH | not failed
7 | MRTALLQNLFSLFPFDLHGDCDVPPARDGIRVSCIINFYGRLNVLAGILWSLAQQDFPRSAFEVILVEDRGGSDEGRALAEEFSSRLPIVYAPLDKQYGLMGYSRNFGLERSRGEFILFLDDDTIILQDDFLKTMVAYFDAQPGVSAIMPHGEASFAFVDDRYDFHDPFFMTSRCTAYRRTVLASLGGFMSSFIGQEDVEFVIRFHAAGNRCAAVPQLAYRHPPLYVTNLGKPMAVGSSFYGIRKRYPLVTWLLAVVNCSRHLPLVLAPSRKYREMGRFGLGFLWGVLTAPFRSGSLNYRLEHHHHHH | failed
8 | GKKDKEKIIDDFKVAVVTQPLSENKVQYNMVEEMAKEYEEENKIDKDKDGQTKVKQTIKHVVLPENFTSNIDSAINKIVKLADDKEVQAIVVSTDQAGLLPALQKVKEKRPEIITISAPMGDDKNQLSQFVDVNLGVSAEERGKVLAERSKEMGAKAFIHYASTDDLKDVNIAKRLEMIKETCKNIGLPFVQVNTPNINTEEDKNKVKQFLNEDIEKQVKKYGKDINVFGVNEYMDEVILTKALELKYIVAEQSNPSPIQTYPSVMGLKISEKDAQNYDKINDMISEKAKAFGMSNRLGGYPMPMDAFLPSLAIYLATEMVKQDLTQEDVCDPDYLEAFTELRFGIGSEFTPLTEVLYNYQSVILSQLIY | not failed
9 | MMNRILLIFLILMSTCFAGCFEQNNLEKSQEMAEIGFAYIGIDNDKAIEYYEKAIKLNPDDANAISFLGTLYDGEGDREKAYEYLTKALEMEPKNPWMYYNLGLYYLNHDDNMAIGCFEKALRIDPENECCWSQLGYTYYDIGDYTNSKLNFEKAYEINPKDQYSDMIEKCNEGI | failed
10 | MDTNNFTVKVEYVDADGAEIAPSDILTDYHYVSTPKDIPGYKLREIPHNATGNITDTGIIVRYIYLEHHHHHH | not failed
11 | YDLLCRERDNFRILVAITNAVLSRLDIDELVSEVAKEIHHYFNIDAISIVLRSHRKNKLNIYSTHYLDEHHPAHEQSEVDEAGTLTERVFKSKEMLLINLNERDPLAPYERMLFDTWGNQIQTLCLLPLMSGKTMLGVLKLAQCEEKVFTTANLKLLRQIAERVAIAVDNALAYQEIHRLKER | failed
12 | MQVITSVKEAKQIVKDWKSHQLSIGYVPTMGFLHDGHLSLVKHAKTQDKVIVSIFVNPMQFGPNEDFSSYPRDLERDIKMCQDNGVDMVFIPDATQMYLKNFSTYVDMNTITDKLCGAKRPGHFRGVCTVLTKFFNILNPDIVYMGQKDAQQCVVVRHMVDDLNFDLKIQICPIIREEDGLAKSSRNVYLSKEERKASLAISQSIFLAEKLVREGEKNTSKIIQAMKDILEKEKLIKIDYIELVDFNTMENIENITDNVLGAVAAFVGKTRLIDNFLVQGLK | not failed
13 | MTETDKKQEQENHAECEDKPKPCCVCKPEKEERDTCILFNGQDSEKCKEFIEKYKECMKGYGFEVPSAN | not failed
14 | MEDVKGKEIIDDAPIDNKVSDEMESEENAIKKKYGGLLPKKIPLISKDHERAFFDSADWALGKQKGQKPKGPLEALRPKLQPTPQQQPRARRMAYSSGETEDTEIDNNEAPDDQACASAVDSTNLKDDGGAKDNIKS | failed
15 | MTSAQKPVFSPSDLQTWLEIATEAVLAAGAEIFSLWGKVQQIQEKGRAGDLVTEADRQAEAIILEIIKRRCPDHAILAEESGQLGQVDNPFCWAIDPLDGTTNFAHSYPVSCVSIGLLIQDIPTVGVVYNPFRQELFRAATSLGATLNRRPIQVSTTASLDKSLLVTGFAYDRVKTLDNNYPEFCYLTHLTQGVRRSGSAAIDLIDVACGRLDGYWERGINPWDMAAGIVIVREAGGIVSAYDCSPLDLSTGRILATNGKIHQELSQALAATPQWFQQYAAARAQKI | failed
16 | MGAAGGGWRMSERHLRRSTHKVGDVTLGPVHRLSCHCGAVQIDLDLPHGLLDPRRCDCSMCRRRGAIVASVSLDGLHVLQGEDVLRLYQFNTQTAAHYFCGVCGIYTHHRRRSNPNEYGYNVGCLEGVNPYALNIAVPVEDGVNHPADRVTAAS | failed
17 | MKMEARQKQNSFTSKMQKIVNHRAFTFTVIALILFNALIVGIETYPRIYADHKWLFYRIDLVLLWIFTIEIAMRFLASNPKSAFFRSSWNWFDFLIVAAGHIFAGAQFVTVLRILRVLRVLRAISVVPSLRRLVDALVMTIPALGNILILMSIFFYIFAVIGTMLFQHVSPEYFGNLQLSLLTLFQVVTLESWASGVMRPIFAEVPWSWLYFVSFVLIGTFIIFNLFIGVIVNNVEKAELTDNEEDGEADGLKQEISALRKDVAELKSLLKQSK | failed
18 | MELSFRIWLGGLGMLISLLILYFKAVPELEEFHKNCTLKQNWEQPFKKVKNLTLILSISLLSIIGFFLMFINLVNINPI | failed
19 | ANSQLRKQRDENAELAERLASLLKMLPAGVVELSPDGRVIAENLAAESLISGCYIGEYWEAVLERLLTQEADGSFALEAGGESRRLTLQYQDLPASGGRIVLIHDV | failed
20 | MIKGFRLWILIVSLGLSFSFLGYQWLTRYNFNTDHQVGDVIDSLNGVEIYYNGGVNTNEGRNLSLDGYNLGIKYQCVEFVKRYFYQRYQHQMPDSFGHARDFFDNLLTDGSWNEKRALRQFTNGSQSKPMADDLLVFAPWILNPYGHVAIIAAVTDKGIEIAQQNPGPFAPSREYFPLIQRDGLWYIDAPRAKGWLRWEATSPNVATENSGFIDPVMVIKELEHHHHHH | not failed
21 | METKANYTIVGIFTLIVIAAAFGFVYWMAEFGRGGPTAQLVVRIPGSANGLSVGSPVRFNGIPVGTVRGLAIDRDDPAYSIAFTEVQADAPVFPSTRAVLEIQGLTGAAYIELSGGNKDGERILQKSVESGVPAELTADLSSVTNLLATADKILKRADGAIGELQGFVQDARGPLTQTVRNAEKFSDALAANSDGIKNFIASLSSLSTTVQSVSVRLDGTLTAVENLVKAVDAGKIDSILSNVDKVTKDVASASSDIQGIMETVQSTARNFEAASTEVQTVVKRADELLASVDPAKVSTVVGDVSAATADARDAVANFKRIADDVGARRADIDQAVSDFTEMGRKLNLASSRVDGILAKVDGMLGTDDANSLFAKARETLTSFKAVADNLNARIGPIADNLTRFSSSGLKDFQALIGSTRQTVDNLNNAITNIDRDPQRLIFGGETVKQYDGRTRRLEHHHHHH | failed
22 | MKELIKEHQKDINPALQLHDWVEYYRPFAANGQSANYIPALGKVNDSQLGICVLEPDGTMIHAGDWNVSFTMQSISKVISFIAACMSRGIPYVLDRVDVEPTGDAFNSIIRLEINKPGKPFNPMINAGALTIASILPGESAYEKLEFLYSVMETLIGKRPRIHEEVFRSEWETAHRNRALAYYLKETNFLEAEVEETLEVYLKQCAMESTTEDIALIGLILAHDGYHPIRHEQVIPKDVAKLAKALMLTCGMYNASGKYAAFVGVPAKSGVSGGIMALVPPSARREQPFQSGCGIGIYGPAIDEYGNSLTGGMLLKHMAQEWELSIF | not failed
23 | MGHHHHHHSHMALKDYALEKEKVKKFLQEFYQDDELGKKQFKYGNQLVRLAHREQVALYVDLDDVAEDDPELVDSICENARRYAKLFADAVQELLPQYKEREVVNKDVLDVYIEHRLMMEQRSRDPGMV | not failed
24 | MPVHSRGDKKETNHHDEMEVDYAENEGSSSEDEDTESSSVSEDGDSSEMDDEDCERRRMECLDEMSNLEKQFTDLKDQLYKERLSQVDAKLQEVIAGKAPEYLEPLATLQENMQIRTKVAGIYRELCLESVKNKYECEIQASRQHCESEKLLLYDTVQSELEEKIRRLEEDRHSIDITSELWNDELQSRKKRKDPFSPDKKKPVVVSGPYIVYMLQDLDILEDWTTIRKAMATLGPHRVKTEPPVKLEKHLHSARSEEGRLYYDGEWYIRGQTICIDKKDECPTSAVITTINHDEVWFKRPDGSKSKLYISQLQKGKYSIKHS | not failed
25 | MGHHHHHHENLYFQSHLKIMDVEGGALVDPDHIEEVETSMVIVVDDDDGDVAMVVEEDKHPMRDDPCIEDIMDDEHAPLVAELQSALNNPDDKQASEDPLLED | failed
26 | MEYRITGKGVEISEAIKNYLEKRLDKIDRVIYDDDLVSFNVRIEKDGKNQYVVKFNMNLKGNIINVEERHPDIYTAIDFASDALEKQVKRLKERLKNHPHRSSALVETPLEEPGEFSPSDKVSSVKRVSLLNLDLDEAVMQMDELNHRFLVFRNVNTGEINLLYRDENGDIHLIEMAE | failed
